Reference: publication PMC2802658 (Biochemistry, 2010)
Like-named read-outs stand apart in the source and are kept apart here.

Assays:
[1] = target: T1, cation-dependent mannose 6-phosphate receptor (sCD-MPR) (Bos taurus, UniProt P11456, N59Q/N85Q/N96Q/N115Q); experiment: […]-1H HSQC NMR titration; type: binding
T1 sequence (P11456 29-182 N59Q/N85Q/N96Q/N115Q): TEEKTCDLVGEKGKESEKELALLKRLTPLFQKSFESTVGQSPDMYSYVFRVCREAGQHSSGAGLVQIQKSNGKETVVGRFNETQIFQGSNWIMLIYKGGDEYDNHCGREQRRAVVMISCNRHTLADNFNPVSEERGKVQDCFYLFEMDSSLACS

[2] = target: β-glucuronidase (Homo sapiens) (UniProt P08236); conditions: cited from earlier work
[3] = target: β-glucuronidase (Homo sapiens) (UniProt P08236); conditions: cited from earlier work; remark: listed apart in the source
[4] = target: β-glucuronidase (Homo sapiens) (UniProt P08236); conditions: cited from earlier work; remark: listed apart in the source

Chain of β-glucuronidase (Homo sapiens) (P08236 23-651): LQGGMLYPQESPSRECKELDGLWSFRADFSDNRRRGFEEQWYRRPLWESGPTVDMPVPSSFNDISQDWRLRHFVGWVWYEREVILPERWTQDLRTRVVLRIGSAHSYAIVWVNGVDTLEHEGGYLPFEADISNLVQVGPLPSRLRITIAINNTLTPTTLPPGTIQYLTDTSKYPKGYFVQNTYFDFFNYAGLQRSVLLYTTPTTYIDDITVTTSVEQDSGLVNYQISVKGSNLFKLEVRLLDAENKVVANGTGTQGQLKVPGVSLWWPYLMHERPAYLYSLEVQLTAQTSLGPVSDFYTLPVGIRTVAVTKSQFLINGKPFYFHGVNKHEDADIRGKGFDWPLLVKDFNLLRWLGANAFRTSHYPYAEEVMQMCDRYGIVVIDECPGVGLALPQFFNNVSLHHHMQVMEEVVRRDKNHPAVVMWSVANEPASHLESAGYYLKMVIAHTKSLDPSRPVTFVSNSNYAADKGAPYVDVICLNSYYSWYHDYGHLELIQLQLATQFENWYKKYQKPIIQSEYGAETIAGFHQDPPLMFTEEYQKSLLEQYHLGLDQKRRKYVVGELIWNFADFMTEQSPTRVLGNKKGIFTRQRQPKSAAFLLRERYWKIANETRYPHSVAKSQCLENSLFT

Molecule: O=P(O)(O)OC[C@H]1OC(O)[C@@H](O)[C@@H](O)[C@@H]1O (stereo partly shown) [mannose 6-phosphate]
- Kd [1]: ~1000 µM

Molecule: cation-dependent mannose 6-phosphate receptor (from UniProt P11456)
- Kd [2]: 0.00028 µM

Molecule: cation-dependent mannose 6-phosphate receptor (sCD-MPR) ECD (from UniProt P11456)
- Kd [3]: 0.0014 µM

Molecule: cation-dependent mannose 6-phosphate receptor (sCD-MPRHis6) ECD (from UniProt P11456)
- Kd [4]: 0.0015 µM
